Tested on: mouse bone marrow derived macrophages (BMDM)
Test: G-CSF secretion in mouse BMDM (ELISA)
Assay type: cell-based
Conditions: for secreted mouse G-CSF: mouse BMDM
Procedure: SAA induces G-CSF expression in monocytes and macrophages: To determine whether SAA plays a role in neutrophilia, the ability of SAA to stimulate G-CSF expression was investigated. Human peripheral blood monocytes (PBMC) were incubated with SAA, and the concentration of secreted G-CSF in the culture medium was determined at various time points after stimulation. The concentration of SAA used in this experiment (1 μM) was well within its physiological range (0.08 μM to 80 μM). […] Since subsequent studies used mice for measurement of G-CSF secretion and neutrophilia, SAA-induced G-CSF expression in mouse bone marrow derived macrophages (BMDM) was determined, of which 98% were F4/80^+ CD14^+ based on flow cytometry analysis. […] The basal level of G-CSF remained stable at approximately 42 pg/ml/10^6 cells over the entire course of incubation.
It was next determined whether induction of G-CSF expression was a primary function of SAA or resulted from contaminating LPS in the SAA preparation. The LPS concentration in the recombinant SAA preparation was ≦0.1 ng/μg protein, translating into ≦1.14 ng/ml LPS in a typical experiment with 1 μM SAA. LPS at this or 10-fold higher concentrations was tested for its effect on the expression of G-CSF. […] Given that most proteins are heat labile while LPS is heat resistant, the ability of heat-treated SAA (1 μM) and LPS (1 μg/ml) to stimulate G-CSF secretion in mouse BMDM was examined. After boiling for 25 min, LPS retained its ability to induce G-CSF production by ˜83%. […] In parallel experiments, polymyxin B, an amphiphilic cyclic polycationic peptide that specifically binds to LPS and blocks the cytokine-inducing effect of LPS (Stokes et al., 1989), was used to treat SAA or LPS prior to incubation with BMDM. […] Under the same experimental conditions, polymyxin B reduced LPS-stimulated G-CSF secretion by more than 70%.
It was previously shown that FPRL1 is involved in SAA-induced IL-8 production in human neutrophils (He et al., 2003). It has also been shown that SAA binds to FPRL1 and stimulates the production of matrix metalloproteinase (O'Hara et al., 2004). […] A role of TLR2 in SAA-stimulated G-CSF expression was examined.
Cell preparation and culture: Human peripheral blood monocytes were prepared from fresh, heparinized venous blood by Ficoll-Hypaque density-gradient centrifugation. Blood drawing followed a protocol approved by the Institutional Review Board at the University of Illinois at Chicago. Purified monocytes (>93% CD14^+ by flow cytometry) were kept in nonadherent condition in RPMI 1640 containing 0.5% FBS and maintained at 37° C. Mouse macrophages were differentiated from bone marrow cells. Mouse bone marrow cells were aspirated from the femurs of 8-12-week-old mice and cultured at 37° C. in 5% CO2 in RPMI 1640 medium containing 10% FBS, 15% L-cell conditional medium, 10 mM HEPES, 2 mM L-glutamine, 100 IU/ml penicillin, and 50 μg/ml streptomycin. The medium was changed every three days. Macrophages (about 98% F4/80+ by flow cytometry) were obtained after 7 days of culture. The mouse macrophage cell line RAW264.7 cells were maintained in DMEM medium supplemented with 10% FBS, 10 mM HEPES, 2 mM L-glutamine, 100 IU/ml penicillin, and 50 μg/ml streptomycin. TLR2-HeLa cells were generated by transfection of HeLa cell with the expression construct pUNO-hTLR2 (InvivoGen). Stable transfectants were selected with Blasticidin at 20 μg/ml for 2 weeks. Mock-transfected HeLa cells were generated similarly, with a pUNO empty vector. Cells were maintained in DMEM supplemented with 10% heat-inactivated FBS, 2 mM L-glutamine, 100 IU/ml penicillin, and 50 μg/ml streptomycin. Expression of TLR2 was confirmed using an anti-TLR2 antibody (eBioscience) and FTTC-conjugated anti-mouse antibody, on a FACSCalibur flow cytometer (Becton Dickinson). FIGS. 12 and 13 are plasmid maps of pUNO-hTLR2 and pNF-κB-Luc, respectively. […]

B1: SAA: Recombinant human SAA purchased from PeproTech; major acute-phase protein of 104 amino acids (protein, UniProt P0DJI8 19-122, looked up)
Serum amyloid A-1 protein: RSFFSFLGEAFDGARDMWRAYSDMREANYIGSDKYFHARGNYDAAKRGPGGAWAAEVITDARENIQRFFGHGAEDSLADQAANEWGRSGKDPNHFRPAGLPEKY
maximal G-CSF production (BMDM, SAA, experiments of FIG. 4): 446 pg/ml/10^6 cells
ability to stimulate G-CSF secretion after heat treatment (SAA 1 μM, boiled 25 min, BMDM, 16 h): could no longer stimulate G-CSF secretion
secreted mouse G-CSF (SAA 1 μM, after 8 h): 155 pg/ml/10^6 cells
secreted mouse G-CSF (SAA 1 μM, after 24 h): 965 pg/ml/10^6 cells
ability to induce G-CSF protein secretion in tlr2−/− BMDM (tlr2−/− vs wild-type BMDM, SAA 1 μM): drastically reduced

— patent publication US7629135B2, “Toll-like receptor agonists and antagonists and methods of use thereof” (The Board of Trustees of the University of Illinois, priority 2006, dated 2009)
